Source: US9212226B2, “Amino acid sequences directed against CXCR4 and other GPCRs and compounds comprising the same” (Ablynx N.V., priority 2008, dated 2015)

Experiments:
[1] = target: T1, CXCR4 (Homo sapiens, UniProt P61073); experiment: [125I]-238D4 competition binding on membranes from HEK293T cells transiently expressing CXCR4; details: membranes from HEK293T cells transiently expressing CXCR4; mean ± S.E.M.
Description: HEK293T cells were maintained at 37° C. in a humidified 5% CO2, 95% air atmosphere in Dulbecco's modified Eagle's medium (DMEM) containing 2 mM L-glutamine, 50 IU/ml penicillin, 50 μg/ml streptomycin, and 10% (v/v) fetal calf serum. Jurkat cells were cultured in a humidified 5% CO2, 95% air atmosphere in a 1:1 mixture of Dulbecco's modified Eagle's medium (DMEM) and Ham's F12 medium containing 2 mM L-glutamine, 50 IU/ml penicillin, 50 μg/ml streptomycin, and 10% (v/v) fetal calf serum. […] [^125 I]-Labelling— Radiolabeling of Nanobodies with ^125I was performed using the Iodo-gen method (Pierce, Rockford, Ill.) according to the manufacturer's protocol. ^125I-labeled Nanobodies was separated from free iodine (>99%) using a Sephadex G-25 gel filtration column (Amersham Biosciences, Piscataway, N.J.). […] Competition Binding Assays— Membranes from HEK293T cells transiently expressing CXCR3 or CXCR4 were prepared 48 h after transfection as follows. Cells were washed and scraped from the cell culture dishes with ice-cold PBS containing 1 mm EDTA. The scraped cells were pelleted at 1500×g for 10 min at 4° C. The pellet was washed and then resuspended in ice-cold membrane buffer (15 mM Tris, pH 7.5, 1 mM EGTA, 0.3 mM EDTA, and 2 mM MgCl2). The cell suspension was homogenized by 10 strokes at 1200 rpm using a Teflon-glass homogenizer and rotor and further subjected to three freeze-thaw cycles using liquid nitrogen. Membranes were separated by centrifugation at 40,000 g for 25 min at 4° C. The membrane pellet was washed and resuspended in ice-cold Tris-sucrose buffer (20 mM Tris, pH 7.4, and 250 mM sucrose) and frozen in liquid nitrogen. The total protein was determined using a Bradford assay (Bio-Rad). […] Membranes were then harvested over polyethylenimine (0.5%)-treated Whatman GF/C filter plates and washed three times with ice cold binding buffer containing 500 mM NaCl. Plates were counted by liquid scintillation. Inositol Phosphate Accumulation Assay— 24 hours post transfection with pcDNA3.1-CXCR4 and pcDNA1-HA-mG {alpha} qi5 (see Verzijl et al, 2008 supra), 250.000 cells were seeded into 24-wells plates and labelled overnight using inositol-free minimal essential medium supplemented with 1 μCi myo-[2-^3H]-inositol. The next day, the cells were washed once to remove not incorporated myo-[2-^3H]-inositol. […] In agonist experiments, the cells were directly stimulated with test compounds and LiCl (10 mM) in assay buffer for 2 h at 37° C. The stimulation was stopped by aspirating the stimulation medium and adding ice-cold 10 mM formic acid. The accumulated inositol phosphates were isolated by anion exchange chromatography and counted by liquid scintillation. CRE Reporter Gene Assay— HEK239T cells were transfected with pCRE/β-galactosidase (Chen W, Shields T S, Stork P J S, Cone R D (1995) Anal Biochem 226:349-354) and plasmids (pcDEF3 or pcDNA3.1) encoding the indicated receptors. 40,000 transfected cells per well were seeded into 96 well plates and grown in DMEM supplemented with 10% fetal calf serum. The medium was replaced 32 h after transfection by serum-free DMEM supplemented with 0.5% bovine serum albumin and ligands as indicated. […] The β-galactosidase activity was determined by the measurement of absorption at 420 nm with a PowerwaveX340 plate reader (Bio-Tek Instruments Inc., Winooski, Vt.) after incubation with the assay buffer when the OD420 value for forskolin (3 μM) controls reached 0.4-0.6. Chemotaxis Assay— The chemotactic responsiveness of Jurkat 3D cells was assessed using ChemoTx™ plates (Receptor Technologies Ltd., Oxon, UK) in which a upper cell-containing compartment is separated from a lower chemoattractant-containing compartment by a polyvinylpyrollidone-free polycarbonate filter with 5-μm pores. Cells were harvested, washed and resuspended in RPMI containing 0.5% bovine serum albumin and then loaded to 150,000 cells per well in a volume of 25 μl into the upper compartment of the chemotaxis chamber.
Target sequence in this assay (P61073 whole entry): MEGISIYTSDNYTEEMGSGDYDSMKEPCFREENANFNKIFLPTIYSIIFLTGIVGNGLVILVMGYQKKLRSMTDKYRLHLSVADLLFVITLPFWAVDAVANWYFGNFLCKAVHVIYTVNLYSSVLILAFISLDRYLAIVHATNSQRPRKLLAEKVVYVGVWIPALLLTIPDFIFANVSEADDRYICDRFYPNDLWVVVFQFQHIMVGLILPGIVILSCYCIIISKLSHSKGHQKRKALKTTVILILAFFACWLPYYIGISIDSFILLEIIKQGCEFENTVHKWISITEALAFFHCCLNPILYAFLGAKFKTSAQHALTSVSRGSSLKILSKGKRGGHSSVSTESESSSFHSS

[2] = target: T1, CXCR4; experiment: Phage ELISA binding assay on CHO-CXCR4 versus CHO membranes; design: expressed in transfected cells; host or cells: CHO cells (membrane preparation); details: monoclonal phages, CHO-CXCR4 vs CHO membranes
Description: FIG. 2. Results from Phage ELISA (as described in example 1.5).
In order to determine binding specificity of the Nanobodies, 15 ul of the produced phage were tested in an Phage ELISA binding assay.
In short, 2 ug in 100 ul PBS of membrane expressing either CXCR4 (CHO-CXCR4) or a non relevant GPCR(CHO) were coated directly on Maxisorp microtiter plates (Nunc) overnight at 4 C. Free binding sites were blocked using 4% Marvel in PBS for 1 h. Next, 15 ul of monoclonal phages was added in 100 ul 1% Marvel PBS for 2 hours. […] Binding specificity (binding to CHO-CXCR4) was determined based on OD values compared to controls (binding to CHO).
Target sequence in this assay (P61073 with tags, fused parts or gaps isoform P61073-2 limits assumed): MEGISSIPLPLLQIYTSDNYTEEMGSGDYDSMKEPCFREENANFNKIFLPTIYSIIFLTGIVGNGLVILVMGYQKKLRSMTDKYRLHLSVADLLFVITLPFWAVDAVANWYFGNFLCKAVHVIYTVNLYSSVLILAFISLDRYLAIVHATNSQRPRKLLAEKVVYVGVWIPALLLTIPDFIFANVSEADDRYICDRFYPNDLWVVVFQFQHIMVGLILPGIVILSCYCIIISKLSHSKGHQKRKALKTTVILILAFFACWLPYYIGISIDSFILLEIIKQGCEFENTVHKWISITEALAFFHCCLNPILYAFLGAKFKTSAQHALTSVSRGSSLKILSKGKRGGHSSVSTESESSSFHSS

| Displacem. (%) of [125I]-238D4 (maximal displacement) [1] | specificity toward CXCR4 expressing membrane compared to non-expressing membrane [2] | Molecule |
| --- | --- | --- |
| 103 ± 1% | – | 238D4: Nanobody (VHH) raised against human CXCR4, SEQ ID NO: 239 (protein, Nanobody, Nanobody constructs or fragments thereof) VHH: EVQLMESGGGLVQAGGSLRLSCAASGRTFNNYAMGWFRRAPGKEREFVAAITRSGVRSGVSAIYGDSVKDRFTISRDNAKNTLYLQMNSLKPEDTAVYTCAASAIGSGALRRFEYDYSGQGTQVTVSS |
| – | high specificity | 238D2: Nanobody (VHH) raised against human CXCR4, SEQ ID NO: 238 (protein, Nanobody, Nanobody constructs or fragments thereof) VHH: EVQLVESGGGLVQTGGSLRLSCAASGFTFSSYAMSWVRQAPGKGLEWVSGIKSSGDSTRYAGSVKGRFTISRDNAKNMLYLQMYSLKPEDTAVYYCAKSRVSRTGLYTYDNRGQGTQVTVSS |
